# Measured values taken from PMC7324553, “Activity-Based Protein Profiling Reveals That Cephalosporins Selectively Active on Non-replicating Mycobacterium tuberculosis Bind Multiple Protein Families and Spare Peptidoglycan Transpeptidases” (Frontiers in Microbiology, 2020).
# B1: Rv1738 (uncharacterized protein Rv1738; potential hibernation factor) (natural protein)
# chain: MCGDQSDHVLQHWTVDISIDEHEGLTRAKARLRWREKELVGVGLARLNPADRNVPEIGDELSVARALSDLGKRMLKVSTHDIEAVTHQPARLLY
# Molecular target: the molecule itself
# Assay: SEC; Superdex 75 column, 20 mM Tris-Cl (pH 7.5), 150 mM NaCl; profile compared with protein size standards (44 and 17 kDa)
protein,measurement,value
B1,stoichiometry N,2
